T1: human BTN2A2 CFP(Nter)-fusion protein expressed on 293F BTN3/BTN2 KO cells (human, UniProt Q8WVV5 33-523)
T1 construct: also called pcDNA3-Zeo-BTN2A2-CFP; not shown: CFP fused at the N-terminus (CFP(Nter)-fusion)
T1 sequence: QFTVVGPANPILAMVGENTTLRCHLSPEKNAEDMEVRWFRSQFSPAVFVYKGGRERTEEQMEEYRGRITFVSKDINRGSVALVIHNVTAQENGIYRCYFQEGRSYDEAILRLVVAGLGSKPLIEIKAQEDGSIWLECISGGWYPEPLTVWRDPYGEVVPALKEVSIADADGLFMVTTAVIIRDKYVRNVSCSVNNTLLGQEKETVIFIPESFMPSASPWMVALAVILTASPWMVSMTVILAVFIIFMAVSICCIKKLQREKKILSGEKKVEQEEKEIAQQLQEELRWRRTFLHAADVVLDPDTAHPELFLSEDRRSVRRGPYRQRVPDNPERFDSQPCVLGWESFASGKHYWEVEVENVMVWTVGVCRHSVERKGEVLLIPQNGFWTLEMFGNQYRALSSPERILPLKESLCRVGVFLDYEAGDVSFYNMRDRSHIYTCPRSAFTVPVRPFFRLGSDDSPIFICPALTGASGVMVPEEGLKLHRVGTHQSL

T2: human BTN2A1 CFP(Nter)-fusion protein expressed on 293F BTN3/BTN2 KO cells (human, UniProt Q7KYR7 29-527)
T2 construct: also called pcDNA3-Zeo-BTN2A1-CFP; not shown: CFP fused at the N-terminus (CFP(Nter)-fusion)
T2 sequence: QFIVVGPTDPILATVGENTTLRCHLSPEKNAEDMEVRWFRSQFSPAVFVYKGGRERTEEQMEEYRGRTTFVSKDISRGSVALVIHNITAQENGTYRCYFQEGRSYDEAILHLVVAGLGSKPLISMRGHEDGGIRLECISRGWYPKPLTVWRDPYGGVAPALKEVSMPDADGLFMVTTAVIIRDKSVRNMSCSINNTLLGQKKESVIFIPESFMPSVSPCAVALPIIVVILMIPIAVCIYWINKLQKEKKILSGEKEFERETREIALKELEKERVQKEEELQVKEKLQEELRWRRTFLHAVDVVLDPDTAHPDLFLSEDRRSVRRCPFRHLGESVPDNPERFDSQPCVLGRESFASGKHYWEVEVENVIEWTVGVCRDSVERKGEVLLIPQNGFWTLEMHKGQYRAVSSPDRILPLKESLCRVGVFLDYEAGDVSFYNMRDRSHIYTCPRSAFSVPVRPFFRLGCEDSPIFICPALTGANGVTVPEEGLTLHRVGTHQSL

T3: human BTN2A2 expressed on HEK293F cells transfected with BTN2A2-Flag plasmid (human, UniProt Q8WVV5 33-523)
T3 construct: HEK293F cells here are not knocked out for endogenous BTN2/BTN3; also called HEK-BTN2 cells; not shown: Flag tag
T3 sequence: T1 sequence

B1: mAb3 (mouse anti-human BTN2 mAb 7.28) (antibody, V domains shown)
VH: QVHLQQSGAELMKPGASVKISCKATGYTFSSYWIEWVKQRPGHGREWIGEILPGSGSTKYNEKFRGKATFAADTSSNTAYVQLSSLTSEDSAVYYCARLKGYYGGGAMDYWGQGTSVTVSS
VL: DVQITQSPSYLAASPGETITINCRASKSISKYLAWYQEKPGKTNELLIYSGSTLQSGIPSRFSGSGSGTDFTLTISSLEPEDFAMYYCQQHNEYPWTFGGGTKLEIK
notes: Mouse IgG1 purified from hybridoma supernatant; also called CNCM I-5233
B2: mAb4 (mouse anti-human BTN2 mAb 7.48) (antibody, V domains shown)
VH: EVQLVESGGDLVKPGGSLKLSCAASGFTFSDFYMYWVRRTPEKRLEWVATISDGGSHTYYPDSVKGRFTISRDNAKNNLYLQMRSLKSEDTAMYYCGRDTTIITPYWGQGTLVTVSA
VL: QSVVTQESALTTSPGETVTLTCRSSTGAVTTSNYANWVQEKPDHLFTGLIGGTNNRAPGVPARFSGSLIGDKAALTITGAQTEDEAIYFCGLWYSNHWVFGGGTKLTVL
notes: Mouse IgG1 purified from hybridoma supernatant; also called CNCM I-5234
B3: mAb1 (mouse anti-human BTN2 mAb 4.15) (antibody, V domains shown)
VH: QVQLQQSGAELVKPGASVKLSCKASGYIFTSYDINWVRQRPEQGLEWIGWIFPGDDSIIQNEKFKGKATLTTDKSSSTVYMQLSRLTSEDSAVYFCARLGPLRGFTYWGQGTLVTVSA
VL: DIVLTQSPASLAVSLGQRATISCRASESVDRYGSSFMHWYQQKPGQPPKLLIYRASNLESGIPARFSGSGSRTDFTLTINPVEADDVATYYCQQSNEDPWTFGGGTKLEIK
notes: Mouse IgG1 purified from hybridoma supernatant; also called CNCM I-5231
B4: mAb5 (mouse anti-human BTN2 mAb 8.15) (antibody, V domains shown)
VH: EVKLLESGGGLVQPGGSLKLSCAASGFDFSGYWMTWVRQAPGKGLEWIGEINPDSSTINYTPSLRDKFIISRDNAKNTLYLQMSKVRSEDTALYFCARGSYYPSYWGQGTLVTVSA
VL: DIVLTQSPASLAVSLGQRATISCRASKSVSSSGYSYMNWYQQKPGQPPKLLIYLASNLESGVPARFSGSGSGTDFTLNIHPVEDEDAATYYCQHSRELPHTFGGGTKLEIK
notes: Mouse IgG1 purified from hybridoma supernatant; also called CNCM I-5235
B5: mAb6 (mouse anti-human BTN2 mAb 8.16) (antibody, V domains shown)
VH: B4 VH
VL: B4 VL
notes: Mouse IgG1 purified from hybridoma supernatant; also called CNCM I-5236
B6: mAb2 (mouse anti-human BTN2 mAb 5.28) (antibody, V domains shown)
VH: QIQLVQSGPELKKPGETVKISCKASGYTFTDYSMNWVKQAPGKGLKWVGRINTETGEPTYADDFKGRFAFSLETSASTAYLQIKNLKNEDTATYFCVRDYAKRWGQGTSVTVSS
VL: DIVMTQSHKFMSTSVGDRVSITCKASQDVITAVAWYQQKPGQSPKLLIYSTSYRYTGVPDRFTGSGSGTDFTFTISSVQAEDLAVYYCLQHYTTPWTFGGGTKLEIK
notes: Mouse IgG1 purified from hybridoma supernatant; also called CNCM I-5232
B7: mAb7 (mAb 8.33, comparative control antibody) (antibody, V domains shown)
VH: DVQLQESGPGLVKPSQSLSLTCSVTGYSITSGYYWNWIRQFPGNKLEWMGYISYDGNNNYNPSLKNRISITRDTSKNQFFLKLNSVTTEDTATYYCASPLYDGYYWYFDVWGAGTTVTVSS
VL: ETTVTQSPASLSLAIGEKVTIRCITSTDIDDDMNWYQQKPGEPPKLLISEANTLRPGVPSRFSSSGRGTDFVFTIENMLSEDVADYYCLQSDNLPYTFGGGTKLEIK
notes: Mouse IgG1 purified from hybridoma supernatant; also called CNCM I-5237

Biological target: T1, human BTN2A2 CFP(Nter)-fusion protein …
Assay: flow cytometry (PE MFI in CFP-positive cells) on 293F BTN3/BTN2 KO cells transfected with BTN2A2-CFP
Description: (§1) HEK-293F cells bearing CRISPR-Cas9-mediated deletions of all isoforms of BTN3 and BTN2 (293F BTN3/BTN2 KO) were generated (data not shown), cultured in DMEM (Life Technologies) 10% fetal bovine serum (FBS, Gibco) 1 mM sodium pyruvate (Thermofisher scientific), and transfected independently with pcDNA3-Zeo-BTN2A1-CFP or pcDNA3-Zeo-BTN2A2-CFP, which encode BTN2A1 and BTN2A2 CFP(Nter)-fusion proteins, using Lipofectamine 2000 reagent (Thermofisher scientific) according to manufacturer's instructions.
(§2) Twenty-four hours after transfection, cells (5×10⁴/sample) were collected and stained in duplicate with the indicated concentrations (2-fold dilutions starting from 20 μg/mL to 64 pg/mL) of all 7 purified anti-human BTN2 mAbs in 50 μL of staining buffer (DPBS1X (Thermofisher scientific) 1% FBS, 1 mM EDTA (Thermofisher scientific)) during 30 minutes at 4° C. Equal concentrations of mouse IgG1 antibody (Miltenyi) were used as isotype control for staining. Then, cells were washed twice with 200 μL of staining buffer, and incubated with a 1:200 dilution of goat anti-mouse Ig-PE conjugated (Jackson Immunoresearch) in staining buffer for 30 min at 4° C. in the dark. Finally, cells were washed twice in staining buffer prior to fixation using BD Cytofix reagent (BD Bioscience) according to manufacturer's instructions. Mean fluorescence intensity (MFI) on PE channel within the CFP-positive population was assessed for each sample in a Cytoflex LX (Beckman Coulter), and analyzed with a FlowJo V10.4.2 software (FlowJo, LLC 2006-2018).

EC50 [mg/L] | Binder
11.8 | B1
0.01 | B2
0.01 | B3
0.5 | B4
2.4 | B5
0.01 | B6

Biological target: T2, human BTN2A1 CFP(Nter)-fusion protein …
Assay: flow cytometry (PE MFI in CFP-positive cells) on 293F BTN3/BTN2 KO cells transfected with BTN2A1-CFP
Description: as §1, §2

EC50 [mg/L] | Binder
0.02 | B1
0.02 | B2
0.06 | B3
0.08 | B4
0.08 | B5
0.04 | B6

Biological target: T2, human BTN2A1 CFP(Nter)-fusion protein …
Assay: flow cytometry on BTN2A1-transfected 293F BTN3/BTN2 KO cells (summary table, repeats the 7th table)
Description: as §1, §2

EC50 [mg/L] | Binder
0.02 | B1
0.02 | B2
0.06 | B3
0.08 | B4
0.08 | B5
0.04 | B6

Biological target: T2, human BTN2A1 CFP(Nter)-fusion protein …
Assay: flow cytometry on 293F BTN3/BTN2 KO cells transfected with BTN2A1-CFP
Description: as §1
as §2, with “Finally, cells were washed twice in staining buffer prior to fixation using BD Cytofix reagent (BD Bioscience) according to manufacturer's instructions.” left out

binding result | Binder
no binding | B7

Biological target: T1, human BTN2A2 CFP(Nter)-fusion protein …
Assay: flow cytometry on 293F BTN3/BTN2 KO cells transfected with BTN2A2-CFP
Description: as §1
as §2, with “Finally, cells were washed twice in staining buffer prior to fixation using BD Cytofix reagent (BD Bioscience) according to manufacturer's instructions.” left out

binding result | Binder
no binding | B7

Biological target: T1, human BTN2A2 CFP(Nter)-fusion protein …
Assay: flow cytometry on BTN2A2-transfected 293F BTN3/BTN2 KO cells (summary table, repeats the 7th table)
Description: as §1, §2

EC50 [mg/L] | Binder
11.8 | B1
0.01 | B2
0.01 | B3
0.5 | B4
2.4 | B5
0.01 | B6

Biological target: T3, human BTN2A2 expressed on HEK293F cells …
Assay: flow cytometry titration on HEK293F cells transfected with BTN2A2-Flag

EC50 [mg/L] | Binder
31.3 | B1
0.08 | B2
0.07 | B3
0.1 | B4
0.11 | B5
0.07 | B6

Biological target: T3, human BTN2A2 expressed on HEK293F cells …
Assay: flow cytometry on HEK-BTN2 cells (summary table, repeats the 5th table)

EC50 [mg/L] | Binder
31.3 | B1
0.08 | B2
0.07 | B3
0.1 | B4
0.11 | B5
0.07 | B6

Biological target: T3, human BTN2A2 expressed on HEK293F cells …
Assay: flow cytometry on HEK293F cells transfected with BTN2A2-Flag
Description: FIG. 1: Binding of BTN2 mAbs on HEK293F cells. HEK293F cells were transfected with BTN2A2-Flag plasmid. At day 1 after transfection, BTN2A2 transfected HEK293F cells (A) and non-transfected HEK293F cells (B) were stained with purified mouse anti-human BTN2 mAbs for 20 min at 4° C. Monoclonal Anti-Flag antibody serves as positive control for transfection. After 2 washes, cells were incubated with a secondary goat anti-mouse IgG PE for 20 min at 4° C. and a marker for cell viability. Cells were acquired on a LSRFortessa (BD) and analyzed with FlowJo (TreeStar).

binding result | Binder
no binding | B7

Reference: patent US20200283519A1 (IMCHECK THERAPEUTICS, published 2020)
